Sequences and labels used below:
B1: HDV Ribozyme (parent)
chain: GGCCGGCAUGGUCCCAGCCUCCUCGCUGGCGCCGGCUGGGCAACAUUCCGAGGGGACCGUCCCCUCGGUAAUGGCGAAUGGGACCCA

This data set covers variants of B1. The experiment in a line: self-cleavage, relative activity (ratio to wild type); higher = more cleavage; co-transcriptional.
Regarding C33G G80U, the self-cleavage was 0.0528.

Take C7U A78C: the self-cleavage amounted to 0.0923.

Turning to U47G G59U, the self-cleavage stood at 1.12.

Consider C30G G50C, for which the self-cleavage was found to be 0.157.

Turning to C30U U60G, the self-cleavage was determined as 0.443.

For C64A G80U, the self-cleavage turned out to be 0.294.

In the case of C26U U27G, the self-cleavage amounted to 0.923.

For the variant G80U C85G, the self-cleavage was found to be 0.191.

For the variant G29C G54C, the self-cleavage was 0.0692.

For U27C G73C, the self-cleavage came out at 0.332.

Take C48G U60A: the self-cleavage worked out at 0.864.

For the variant C3G C66G, the self-cleavage amounted to 0.761.

Regarding C13A G53A, the self-cleavage was determined as 0.229.

Regarding C13A G53U, the self-cleavage was determined as 0.138.

Turning to G6C U79G, the self-cleavage is 0.

As for A43C U72A, the self-cleavage was found to be 0.151.

For the variant G6A C85U, the self-cleavage was found to be 0.735.

As to C15G U79G, the self-cleavage was 0.391.

G52C C75A: the self-cleavage is 0.153.

With G35A C48A, the self-cleavage was determined as 0.659.

For A16C C84A, the self-cleavage came to 0.655.

With G59U C86U, the self-cleavage came to 0.852.

For C3A G74U, the self-cleavage was 0.156.

As for G28U G73U, the self-cleavage came to 0.169.

Take U12C G25C: the self-cleavage stood at 0.0923.

C36G U72G: the self-cleavage came out at 0.151.

With G39C C41U, the self-cleavage worked out at 0.554.

Consider G38U G67U, for which the self-cleavage was 0.166.

U12A C66A: the self-cleavage is 0.193.

For the variant G25U U47G, the self-cleavage is 0.0692.

Turning to C3U G6C, the self-cleavage came out at 0.

For C41G C66U, the self-cleavage was found to be 0.683.

Turning to C4G U46G, the self-cleavage worked out at 0.

With A56C A70G, the self-cleavage was 1.05.

For the variant G38C G40U, the self-cleavage came to 0.0332.

Turning to C15A G53A, the self-cleavage was determined as 0.866.

Take U12A G59C: the self-cleavage stood at 0.573.

For G5C G38U, the self-cleavage amounted to 0.

On to U9A C22G, for which the self-cleavage worked out at 0.0519.

On to C33U C49G, for which the self-cleavage amounted to 0.855.

On to G67A G74C, for which the self-cleavage stood at 0.132.

With U27C C33A, the self-cleavage came out at 0.

On to G29A A77U, for which the self-cleavage was 0.187.

As for C64G U79A, the self-cleavage is 0.692.

C32U G68C: the self-cleavage worked out at 0.803.

Regarding A43G A87C, the self-cleavage worked out at 0.688.

As to G68A C85U, the self-cleavage was 0.95.

As to C49G A77C, the self-cleavage stood at 0.119.

As for U12A U46C, the self-cleavage amounted to 0.

G17A C49U: the self-cleavage amounted to 0.853.

As to C61U G67A, the self-cleavage was determined as 0.562.

On to G5C U37G, for which the self-cleavage stood at 0.111.

Take A56G G80U: the self-cleavage came to 0.165.

U23G G50U: the self-cleavage is 0.607.

Regarding C21U G55C, the self-cleavage is 0.18.

On to G28A C49G, for which the self-cleavage amounted to 0.

C49G G74A: the self-cleavage is 0.132.

As to U37A G54U, the self-cleavage worked out at 0.245.

As for U20G U46C, the self-cleavage came out at 0.185.

U47C U79C: the self-cleavage was 0.297.

Consider C61G U69C, for which the self-cleavage turned out to be 0.96.

Regarding C41A C85U, the self-cleavage came to 0.849.

As for A71G U79C, the self-cleavage came to 0.339.

In the case of A16C U27C, the self-cleavage amounted to 0.293.

As to C49A C62U, the self-cleavage was 0.933.

As to G29U G76A, the self-cleavage was determined as 0.107.

Consider G34U G39C, for which the self-cleavage was 0.111.

With C58A A70C, the self-cleavage worked out at 1.04.

For U47A A71G, the self-cleavage came to 1.03.

Regarding C64G U72G, the self-cleavage came out at 0.745.

Turning to G1C G68C, the self-cleavage was 0.0978.

Regarding C48G A78C, the self-cleavage came to 0.199.

For C3A C66A, the self-cleavage came to 0.473.

On to A51C U72C, for which the self-cleavage worked out at 0.475.

On to C26A C66U, for which the self-cleavage is 0.857.

Take C26A A56U: the self-cleavage worked out at 1.12.

Turning to C3U C33G, the self-cleavage was determined as 0.0282.

In the case of C36G G67A, the self-cleavage turned out to be 0.157.

For the variant U27G G73C, the self-cleavage is 0.0978.

With C21A U72A, the self-cleavage was 0.

In the case of C61A G73C, the self-cleavage came to 0.415.

As to C33A C75A, the self-cleavage was 0.122.

On to C33U C63U, for which the self-cleavage is 0.845.

For G34U G81C, the self-cleavage came out at 0.144.

For the variant U46A U60G, the self-cleavage turned out to be 0.939.

As for A56G G73C, the self-cleavage was 0.38.

Take C44G G81C: the self-cleavage is 0.306.

Regarding G6U G53A, the self-cleavage was determined as 0.821.

As for U9G C63A, the self-cleavage amounted to 0.935.

As for U9C C24G, the self-cleavage was 0.0536.

With G1U U65C, the self-cleavage came to 0.399.

Turning to G11A C63G, the self-cleavage turned out to be 0.514.

In the case of U23G C84A, the self-cleavage was 0.712.

On to U27C G68U, for which the self-cleavage amounted to 0.642.

As for G1C C13U, the self-cleavage was determined as 0.125.

Take G29C U65G: the self-cleavage was 0.123.

Turning to G38C C57U, the self-cleavage came out at 0.282.

G29U C63U: the self-cleavage was determined as 0.

Regarding C44A A56G, the self-cleavage worked out at 0.875.

As to G5U U47A, the self-cleavage is 0.378.

Take G11A C66U: the self-cleavage was 0.431.

Regarding G10A C62G, the self-cleavage is 0.456.

With C36G U79G, the self-cleavage came out at 0.0437.

Consider G6U A45C, for which the self-cleavage came to 0.0462.

For the variant G17A G29C, the self-cleavage was 0.0405.

As to G80C C84U, the self-cleavage was determined as 0.16.

Turning to C58U A87C, the self-cleavage turned out to be 0.905.

As to G74C G80U, the self-cleavage was found to be 0.127.

Consider C13U U65A, for which the self-cleavage was found to be 0.508.

U12A U37C: the self-cleavage is 0.277.

In the case of G10C G31A, the self-cleavage is 0.393.

On to C48U C86G, for which the self-cleavage is 1.14.

As to C44G A70U, the self-cleavage is 0.804.

As for C32G G34U, the self-cleavage was 0.0415.

Regarding G39A C63A, the self-cleavage was found to be 0.538.

Regarding G35C A51G, the self-cleavage amounted to 0.415.

Turning to C3U C48U, the self-cleavage is 0.804.

Turning to C4A, the self-cleavage was 0.315.

For the variant G74C G81U, the self-cleavage amounted to 0.0831.

Take G29U U60G: the self-cleavage turned out to be 0.175.

As to C7G U27A, the self-cleavage came out at 0.217.

For G1C U23C, the self-cleavage worked out at 0.0831.

On to U47A C84U, for which the self-cleavage was found to be 0.735.

For C58A U60A, the self-cleavage is 1.09.

Regarding C33U A87C, the self-cleavage was found to be 0.745.

C48G A70G: the self-cleavage amounted to 0.772.

C13A G52A: the self-cleavage was determined as 0.229.

With A8U C41G, the self-cleavage was found to be 0.506.

G17U C58U: the self-cleavage is 0.708.

As to C3A A87U, the self-cleavage was found to be 0.632.

For G17A G38A, the self-cleavage worked out at 0.104.

On to C49A A78U, for which the self-cleavage worked out at 0.248.

Regarding G17C C75U, the self-cleavage amounted to 0.

For the variant G53U U65C, the self-cleavage turned out to be 0.819.

For G34C C57G, the self-cleavage came to 0.0978.

Regarding G1U C22U, the self-cleavage worked out at 0.356.

Turning to G2C C33A, the self-cleavage was found to be 0.0528.

On to C48G G68C, for which the self-cleavage was 1.14.

With C22A U72C, the self-cleavage came to 0.

Consider G1C U79G, for which the self-cleavage was 0.0723.

For A56G C75U, the self-cleavage was 0.17.

As to A16C G17A, the self-cleavage was determined as 0.519.

For G28U G68A, the self-cleavage is 0.182.

For C18A U72A, the self-cleavage was 0.0504.

For C13A G39U, the self-cleavage turned out to be 0.0615.

For the variant A42G U69G, the self-cleavage is 0.554.

On to U27C C61A, for which the self-cleavage was 0.898.

Consider G1C G73U, for which the self-cleavage came out at 0.0426.

For the variant C7A C66U, the self-cleavage stood at 0.587.

Consider G40C U47C, for which the self-cleavage is 0.243.

For the variant U37C G74U, the self-cleavage worked out at 0.332.

For A16U C64A, the self-cleavage is 0.743.

As for C36G C63A, the self-cleavage is 0.269.

As to C4G G52C, the self-cleavage came to 0.383.

Turning to A8G G29U, the self-cleavage came out at 0.

G5U C32A: the self-cleavage was 0.0875.

Regarding C15U U72A, the self-cleavage was determined as 0.485.

With C48G C62A, the self-cleavage came to 0.35.

Consider C48G C62U, for which the self-cleavage stood at 0.746.

Consider C32G A51C, for which the self-cleavage was 0.0489.

Consider U60A C66U, for which the self-cleavage worked out at 1.12.

Regarding A70C C85A, the self-cleavage turned out to be 0.883.

For G34U C61A, the self-cleavage came out at 0.0608.

Take G5A G11A: the self-cleavage came out at 0.101.

Regarding A16C C66G, the self-cleavage came to 0.554.

Regarding C41G A77G, the self-cleavage amounted to 0.268.

With G2U U79A, the self-cleavage is 0.

Source of the values: the RNAGym collection of RNA variant scans (doi:10.7554/elife.80360).
